Data on 1 substance can be found in article doi:10.1101/207886.

The target of this assay is MBP-fused Cas3 (E. coli) (UniProt P38036). Put plainly: single-molecule TIRF fluorescence.
UniProt P38036, sequence (P38036 whole entry, the tested form may be a part): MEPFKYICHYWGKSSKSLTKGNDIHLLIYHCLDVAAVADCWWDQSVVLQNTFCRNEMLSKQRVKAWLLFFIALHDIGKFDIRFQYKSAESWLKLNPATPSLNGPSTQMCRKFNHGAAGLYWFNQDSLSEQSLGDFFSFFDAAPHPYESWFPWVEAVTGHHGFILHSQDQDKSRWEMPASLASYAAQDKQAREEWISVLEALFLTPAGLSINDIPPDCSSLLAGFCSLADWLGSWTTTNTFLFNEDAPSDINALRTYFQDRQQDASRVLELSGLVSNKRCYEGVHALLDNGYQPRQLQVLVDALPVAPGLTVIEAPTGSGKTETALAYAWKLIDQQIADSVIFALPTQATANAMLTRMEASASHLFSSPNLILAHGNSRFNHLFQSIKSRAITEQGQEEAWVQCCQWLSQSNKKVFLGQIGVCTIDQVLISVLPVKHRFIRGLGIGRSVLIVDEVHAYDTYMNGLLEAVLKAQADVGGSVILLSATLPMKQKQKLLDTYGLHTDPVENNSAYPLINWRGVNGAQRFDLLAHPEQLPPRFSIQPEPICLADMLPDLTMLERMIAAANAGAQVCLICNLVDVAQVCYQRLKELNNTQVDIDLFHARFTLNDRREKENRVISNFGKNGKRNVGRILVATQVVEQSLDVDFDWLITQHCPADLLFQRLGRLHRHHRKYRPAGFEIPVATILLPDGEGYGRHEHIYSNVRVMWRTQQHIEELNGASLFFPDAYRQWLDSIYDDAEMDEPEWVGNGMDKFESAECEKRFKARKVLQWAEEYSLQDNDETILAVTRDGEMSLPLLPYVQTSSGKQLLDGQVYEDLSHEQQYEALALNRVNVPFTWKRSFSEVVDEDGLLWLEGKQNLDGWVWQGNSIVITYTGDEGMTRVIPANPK

As to “Cascade complex (RNA-guided surveillance complex), bound to dye-labelled target DNA (from UniProt Q46901 1-502)”, the dwell-time came out at 1.63 s.
